According to the DeepSol protein solubility set:

experiment: soluble on expression in E. coli; label from the status in PepcDB or PDB records

| Sequence | soluble on expression in E. coli |
| --- | --- |
| MSQFSKDQVQDMYYLSPMQEGMLFHAILNPGQSFYLEQITMKVKGSLNIKCLEESMNVIMDRYDVFRTVFIHEKVKRPVQVVLKKRQFHIEEIDLTHLTGSEQTAKINEYKEQDKIRGFDLTRDIPMRAAIFKKAEESFEWVWSYHHIILDGWCFGIVVQDLFKVYNALREQKPYSLPPVKPYKDYIKWLEKQDKQASLRYWREYLEGFEGQTTFAEQRKKQKDGYEPKELLFSPSEAETKAFTELAKSQHTTLSTALQAVWSVLISRYQQSGDLAFGTVVSGRPAEIKGVEHMVGLFINVVPRRVKLSEGITFNGLLKRLQEQSLQSEPHQYVPLYDIQSQADQPKLIDHIIVFENYPLQDAKNEESSENGFDMVDVHVFEKSNYDLNLMASPGDEMLIKLAYNENVFDEAFILRLKSQLLTAIQQLIQNPDQPVSTINLVDDREREFLLTGLNPPAQAHETKPLTYWFKEAVNANPDAPALTYSGQTLSYRELDEEANRIARRLQKHGAGKGSVVALYTKRSLELVIGILGVLKAGAAYLPVDPKLPEDRISYMLADSAAACLLTHQEMKEQAAELPYTGTTLFIDDQTRFEEQASDPATAIDPNDPAYIMYTSGTTGKPKGNITTHANIQGLVKHVDYMAFSDQDTFLSVSNYAFDAFTFDFYASMLNAARLIIADEHTLLDTERLTDLILQENVNVMFATTALFNLLTDAGEDWMKGLRCILFGGERASVPHVRKALRIMGPGKLINCYGPTEGTVFATAHVVHDLPDSISSLPIGKPISNASVYILNEQSQLQPFGAVGELCISGMGVSKGYVNRADLTKEKFIENPFKPGETLYRTGDLARWLPDGTIEYAGRIDDQVKIRGHRIELEEIEKQLQEYPGVKDAVVVADRHESGDASINAYLVNRTQLSAEDVKAHLKKQLPAYMVPQTFTFLDELPLTTNGKVNKRLLPKPDQDQLAEEWIGPRNEMEETIAQIWSEVLGRKQIGIHDDFFALGGHALKAMTAASRIKKELGIDLPVKLLFEAPTIAGISAYLKNGGSDGLQDVTIMNQDQEQIIFAFPPVLGYGLMYQNLSSRLPSYKLCAFDFIEEEDRLDRYADLIQKLQPEGPLTLFGYSAGCSLAFEAAKKLEEQGRIVQRIIMVDSYKKQGVSDLDGRTVESDVEALMNVNRDNEALNSEAVKHGLKQKTHAFYSYYVNLISTGQVKADIDLLTSGADFDIPEWLASWEEATTGVYRMKRGFGTHAEMLQGETLDRNAEILLEFLNTQTVTVSKGEFEAYVEQKLISEEDLNSAVDHHHHHH | soluble |
| MGSDKIHHHHHHMAYADKKLYTDAGFTLERGEHLGIVGQNGAGKSTLIKILTGKVLPIAGRVEWKKKIQIGYLDQYADIPSGMSLIDFLHTAYSDLYDKEKKMTDLYSKYAELVDDKLLERATRFQNELDAADFYSIDNNVEQVITGLGLDSIGRDHIISEMSGGQRAKIILAKLLLEGNDVIILDEPTNYLDVSHIKWLEGYLQNYDGAALIISHDFDFLNNVANVILDVSFNTLTKYRGNFDQAMRQKTEKTEQQLRAYNKQQEVIKKTKTFIQKNKARASTTGRAKSREKMLAHMDIIEPPQTNPKATFKFPYIESQSTDALKAERLVVGYDPKKPVLNPITFSMSSGDKIVFTGFNGAGKSTLIKTLLGILPAISGKSKFSPSAKTNYFDQDLIWDDDKKTPLQIMQAAYPLEEQKQLRQRLGAAGINADNATKQMCLLSGGEQTKVKLALMELTPSNFLILDEPTNHLDEATKNSLKKAIQKFDGSLILVTHERSFYEGWIDKVIDIASMSNMQPGEVEE | not soluble |
| MGSDKIHHHHHHMQNQPPFIINSTYHREESKDIEFKSIASQHPVKKIVNHAEEYITGFLNALVEGQLYIGIDDAGKILGVKLSRSERDEIQKIIPNKLRNTDPIVSPSLYDIAFYNVLNEEQKDIEDLFVVNISVLGVDESQFYRTSSREYFLYKTTGGSTYLKTGTDCIKLNTTEIAQEIQKRKQKYLKQELDNIDDKLLQNPDNRSLLKEKANIAKLMGDIEKMDESYKRLINLNPNNSRTRVDYASAHKSIGDLEGALDILEDALKVDGDNLSILKTKGEILLGSDSSDKVKEAFQTYETALKLNPEDYTIITQIGIALRKLGKYKESIKVFNLALAKSPHYRAAKYEKRITYHKMFEGGIRI | not soluble |
| MGSDKIHHHHHHMRANRIGYVYSNKRFAGELLEFNTLEGYEYSFTYAASYIASGLPQIGYKLPITHEPYRRNYLPPFFANLMSEGWVRRHQARIARLDQDDKFGLLLGNGAELIGPVSVFTEYRGDNISAAIEVIAVPMKSLKGYQIDFPRCEFNEVAMESLGGVSISGVQPKMFLTYAEGNPKTLTNAVGMGPYIVKPSPNDFPELAENEFMVMQLCKAVGFNVAEHHLVPFSCGQLAYVTARFDLDRETGRRHEFIEDLASALNVAPGNKSSDTLSYEKAIKEAYQLSGGHVQLLKDGFLQVLMAYIVGNNDLHLKNISLSRASDSNRASGYTPIYDMVSVAPYRQYDNSGELSIWLLESEVERGFSTSSYEHYGYYTGHDFITFAEAIGLGERAGKVLMNDLGKKVAKARDKVIANAPGSEQLKQIISERITARLSTLTRPALR | not soluble |
| MSLDGQEAAGILERARASVDPELRRAVDSLPGSMRRIALHHFGWEHADGTPAAGNAGKAIRPALVLAAVRALGGPQSSAVRAAAAVELIHNFTLLHDDVMDRDTTRRHRPTAWTVFGDADAILAGDALQALAHRLLAEDPHPASAAAAARLAACVIELCAGQHADTAMERRGPGEVTLDECLAMAEAKTGALLGCACALGALYAGAEEEDVEALDAFGREAGLAFQLIDDVIGIWGDPSRTGKPAGADLMARKKSLPVVAALAAGTPAAAELAELYAVPHQEGELERTVLAVERAGGRDWAQQQAADRMARAMHELSRAIPDPEAAGGLLALAEFVTRRSNEGHHHHHH | soluble |
| MDDLEGKKCIGCQKPAKLRCPTCIKMSLPDAYFCDQSCFKAFWPIHKFSHSDVNGPYNPWPCYSFTGSLRPGRVTDRRPVPDHIPRPDYALHPQGVSLEERQSKSERVIKVLTDEEKEGLKVACKLGRECLNEAAKACGPGVTTEEIDRVVHEAAIERDCYPSPLGYYKFPKSCCTSVNEVICHGIPDMRKLENGDLCNVDVTVYHRGFHGDLNETFLVGDKVDEESRKLVKVTFECLQQAIAIVKPGVKFREIGNVIQKHANANGFSVVKGYCGHGIHRLFHTAPNVPHYAKNNATGVMKAGNSFTIEPMINAGTYHDDKWPDDWTAVTRDGRRSAQFEQTLLVTDTGCEILTKRDGNRPWFMDQIEQSY | soluble |
| MMDHAHDSCSPTLRRDLEVTGQLQPEKAVDLAAPHEGKVANITKVTSSNMEHTITQASKAKEVVVLIGHSLLPTFQDLEKDILHFQAGNKGRFSVAIVDPDRSADVVARFRPKQIPVAYVVKDGASIAEFNSLNKEPVAQWLDHFVSRETIPNEKEGDVDKQIDPRLWRAAELVNAGDFRAALALYEQLPQDATVKRAHAAVSVLARMSVADRGEDPIEKSRRDPDDVNKALAAADMYVLMNQPDTALAHLAALLPKPEAARRIVELLNLFDPLDLVALEIRAQVGNAMS | not soluble |
| MDIKAQLKQIQDKGLYRELQPIQSVEKQYIYINDQSYINFTSNDYLGIGQLEYQPQNFLDFIKTYSIHLSSSRLVSGNSVVYQQLEQAISEHFNFEDALIFNSGYDANLAVFNIFKNNNVVIFSDQQNHASIIDGIKLSGLSKVIYQHLNYDDLESHLAQDTHLDVQKVIVSDSVFSTNGTKADINRLVHLKQRYNAILIIDASHSLGLNLFEYHADIDIVTSSLSKAWGAHGGIIFSSKDIKDLIINKGRSLIYSSSLPSYHLYFIQVSLQHVIEDTYRREKLNALSEYFNHQFMELFPNQPLSNTPIKNIVCDSLASAQAQYDMLFEHGIFVSYLRYPTVSQPTLRISLSYFHDTDDIDRLFNVMKQYDEGDSYV | not soluble |
| MGSDKIHHHHHHMTNENLCAGRNRYDGVSIDFFSDADLRAIDSATMDVFQNPGIQVSDAESRALFKEAGCDVNEKTMVVKIPEHVVRRAIMTAPSKITLYGREKQHTFTQQAGGKVHYTCFGTGVKMCKYEAPGVFKTVDSTEEDLANTARVCDWADNIDSYSLAVSARDWAGKGAQDVHETFTPLMNTSKHFFHIDPVGENVEYYWDILKAYYGGDEEQARSRPIFSELLCPTSPLKIGTNACQLILKSVNFGIPINVISMAMSGASCPVHLAGTLVTHNAEVLSGIVLAQLASPGAKVWYGSSTTAFDLKHGTAPVGSPELGLISAAVAKLGQYYDLPTYVAST | not soluble |
| MPEQAQTRRVFLFLQGPHGPFFHALGRMLRAAGAEVWRVGFNAGDRAFWFHPPSFIPYKGAHEDWPQAFADLLERKGVTDIVLYGDTRPIHASAVAAAKARGLGVHVFEEGYLRPYWVTYEREGSNGNSRLMDMTLEEMRAALALSDLETPLPPSHWGDMRQHIFYGALYHWFVMFTNQGYRRFKPHRDLPVTKEFQLYLQRLLLMPALAVERMLATARIRNGGFPYHLALLQLEHDSSFQQHSPFSTMTDFLEEIFDGFARGAPQHHHLVVKAHPLENGRVPLRREVRRLARQHGLEGRVHYVRGGKLAQLLNDARSAVTVNSTAGQQVLWRGIPLKVFGRAVYDKPEFVSTQTASEFFAAANRPDARAYKEYRRYLLETSQLPGGFYSRKGRRQLLRQVVDMMLSPDDPYDALKSGKAAPRQQLRLVN | not soluble |
| MRLLVADDHPLFRLGLKAALEAEGLEVVAEAGTGEEALVQALEKAPDAVLLDLRMPGMDGLTCARRLREMGYRGLVILLTTYQEPALLLEAYKAGADAYLSKELSAPELKRRLLRIRQGEERLTAPDIPALTPREEEVLRLLAEGLSTKEIARALRLSPETVRSHLESLYAKLEARNRVEALSRARSLGLLP | soluble |
| MTIEHGIWPGKIDIYEKNFNTGQKCMRNPFQNPFPESDTARHSIWEMLVSRDIDAFLAADWSMVADDFVEESFIGVDGRRETNPDKWRLTFPSLAVYRDEWLRQARDFAGQSFAEDPREAIFTTTTLEDIEVDGELALARKKFDGGLKKADGTFDVMKWQTVYYCRLHRGRWKICGFTGYLPNPMGSN | soluble |
| EVVPLAFTKAATQPAPGVKPYNALQVAGRDIYIREGCYNCHSQMIRPFRAETERYGHYSVAGESVYDHPFQWGSKRTGPDLARVGGRYSDEWHRIHLLNPRDVVPESNMPAFPWLARNKVDVDATVANMKALRKVGTPYSDEEIAKAPEALANKSELDAVVAYLQGLGLALKNVR | not soluble |
| RQRTASLIDTNHWLSRIIDLVPHPIFLKDHNGKYLLANIAQGELFGKKPEELLGKTDIDFVYNSDEYVVIKQSDDKVVSTRKTVVLPEQIVTLGDIKYYLYTSKVPLISPVDGELRILGVSINLT | not soluble |
| MGSSHHHHHHSSGRENLYFQGHMSNTYQKRKASKEYGLYNQCKKLNDDELFRLLDDHNSLKRISSARVLQLRGGQDAVRLAIEFCSDKNYIRRDIGAFILGQIKICKKCEDNVFNILNNMALNDKSACVRATAIESTAQRCKKNPIYSPKIVEQSQITAFDKSTNVRRATAFAISVINDKATIPLLINLLKDPNGDVRNWAAFAININKYDNSDIRDCFVEMLQDKNEEVRIEAIIGLSYRKDKRVLSVLCDELKKNTVYDDIIEAAGELGDKTLLPVLDTMLYKFDDNEIITSAIDKLKRS | soluble |
| MTSKTNMTSNKFAYDFFPWSNDTNSSQQIKNIKPPPKRSNRPTKRTTFTSEQVTLLELEFAKNEYICKDRRGELAQTIELTECQVKTWFQNRRTKKRSSELKFGTACSENKTSTKWYYDSKLLFCYPYKYLGCGEGSNSFESNENCLESCKPADQFSCGGNTGPDGVCFAHGDQGCKKGTVCVMGGMVGFCCDKKIQDEWNKENSPKCLKGQVVQFKQWFGMTPLIGRSCSHNFCPEKSTCVQGKWTAYCCQ | soluble |
| MGSDKIHHHHHHMRTDMTIEQNKNRRSAASGCAIHCHDCSMGTLCIPFTLNANELDQLDDIIERKKPIQKGEQIFKSGDPLKSLFAIRSGTIKSYTITEQGDEQITGFHLAGDVIGFDGIHAQSHQSFAQALETSMVCEIPFNILDELSGTMPKLRQQIMRLMSNEIMSDQEMILLLSKKNAEERLAAFISNLANRFGNRGFSAKEFRLTMTRGDIGNYLGLTVETISRLLGRFQKSGLIEVKGKYIIIVDHHELNLLAGNARIAR | not soluble |
